In IntAct's records for PubMed 21642537:

These substances were tested against T1, PKD2, Q13563-1.
T1 sequence: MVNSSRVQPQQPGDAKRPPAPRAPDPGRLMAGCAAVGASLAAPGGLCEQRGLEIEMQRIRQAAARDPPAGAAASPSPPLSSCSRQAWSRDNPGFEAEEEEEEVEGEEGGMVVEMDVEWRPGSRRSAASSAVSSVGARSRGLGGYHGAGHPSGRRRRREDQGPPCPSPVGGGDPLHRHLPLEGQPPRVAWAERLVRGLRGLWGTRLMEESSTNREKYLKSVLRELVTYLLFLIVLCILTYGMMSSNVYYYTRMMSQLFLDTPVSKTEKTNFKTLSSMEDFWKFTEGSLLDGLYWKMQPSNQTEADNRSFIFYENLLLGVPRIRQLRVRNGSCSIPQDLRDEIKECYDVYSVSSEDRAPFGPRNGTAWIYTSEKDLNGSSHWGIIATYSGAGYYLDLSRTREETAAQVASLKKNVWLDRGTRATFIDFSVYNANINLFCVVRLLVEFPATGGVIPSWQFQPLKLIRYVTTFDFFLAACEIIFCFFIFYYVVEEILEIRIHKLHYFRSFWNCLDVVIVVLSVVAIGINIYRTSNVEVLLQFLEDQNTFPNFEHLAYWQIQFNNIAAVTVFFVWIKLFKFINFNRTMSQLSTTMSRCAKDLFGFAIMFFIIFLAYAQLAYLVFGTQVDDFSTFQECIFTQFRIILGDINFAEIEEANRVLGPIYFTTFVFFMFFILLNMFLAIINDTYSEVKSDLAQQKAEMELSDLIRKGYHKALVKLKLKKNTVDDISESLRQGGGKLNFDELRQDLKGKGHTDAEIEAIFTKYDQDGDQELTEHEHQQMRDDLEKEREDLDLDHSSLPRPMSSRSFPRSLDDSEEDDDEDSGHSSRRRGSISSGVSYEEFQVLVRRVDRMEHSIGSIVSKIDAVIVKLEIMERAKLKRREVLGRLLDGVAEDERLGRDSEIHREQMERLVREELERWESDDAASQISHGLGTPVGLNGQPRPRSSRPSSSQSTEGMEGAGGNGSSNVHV
“Polycystin-1 (Mus musculus), O08852 L4229A;E4230A” was tested, and the “effect of a mutation on the interaction” value was “decreasing interaction strength”. In the case of “Polycystin-1 (Mus musculus), O08852 L4229A;L4233A”, the “effect of a mutation on the interaction” value is reported as “decreasing interaction strength”.

Biological target: T1, PKD2, Q13563-1
Remark: another data set of the same source
In the case of “Polycystin-1 (Homo sapiens) (from UniProt P98161-3) D4234A;Y4236A”, the “effect of a mutation on the interaction” value is reported as “decreasing interaction strength”. In the case of “Polycystin-1 (Homo sapiens) (from UniProt P98161-3) D4234R”, the “effect of a mutation on the interaction” value is reported as “decreasing interaction strength”. In the case of “Polycystin-1 (Homo sapiens) (from UniProt P98161-3) F4225A;L4228A”, the “effect of a mutation on the interaction” value is reported as “decreasing interaction strength”. For “Polycystin-1 (Homo sapiens) (from UniProt P98161-3) F4225A;R4227A”, the “effect of a mutation on the interaction” value was “decreasing interaction strength”. “Polycystin-1 (Homo sapiens) (from UniProt P98161-3) L4228A;N4229A” was tested, and the “effect of a mutation on the interaction” value was “decreasing interaction strength”. “Polycystin-1 (Homo sapiens) (from UniProt P98161-3) L4238A” was tested, and the “effect of a mutation on the interaction” value was “decreasing interaction strength”. With “Polycystin-1 (Homo sapiens) (from UniProt P98161-3) L4238A;E4239A” the “effect of a mutation on the interaction” value was “disrupting interaction strength”. In the case of “Polycystin-1 (Homo sapiens) (from UniProt P98161-3) L4238A;L4242A”, the “effect of a mutation on the interaction” value is reported as “disrupting interaction strength”. For “Polycystin-1 (Homo sapiens) (from UniProt P98161-3) L4238A;L4242A;L4245A”, the “effect of a mutation on the interaction” value was “decreasing interaction strength”. “Polycystin-1 (Homo sapiens) (from UniProt P98161-3) V4217A;L4228A” was tested, and the “effect of a mutation on the interaction” value was “decreasing interaction strength”. For “Polycystin-1 (Homo sapiens) (from UniProt P98161-3) Y4236R”, the “effect of a mutation on the interaction” value was “decreasing interaction strength”.
